{"source": "paper PMC3417369", "substrate": "C[C@H](O)C(=O)O", "experiment": "cells, lysate or membranes named", "assay_type": "biochemical, Staphylococcus aureus", "conditions": "1.4 mM menaquinone, 5 μM FAD, phosphatidylethanolamine vesicles, NBT", "data": [{"protein": "Lqo (Mqo2, SACOL2623) (Staphylococcus aureus subsp. aureus COL) (protein) MAKSNSKDIVLIGAGVLSTTFGSMLKEIEPDWNIHVYERLDRPAIESSNERNNAGTGHAALCELNYTVLQPDGSIDIEKAKVINEEFEISKQFWGHLVKSGSIENPREFINPLPHISYVRGKNNVKFLKDRYEAMKAFPMFDNIEYTEDIEVMKKWIPLMMKGREDNPGIMAASKIDEGTDVNFGELTRKMAKSIEAHPNATVQFNHEVVDFEQLSNGQWEVTVKNRLTGEKFKQVTDYVFIGAGGGAIPLLQKTGIPESKHLGGFPISGQFLACTNPQVIEQHDAKVYGKEPPGTPPMTVPHLDTRYIDGQRTLLFGPFANVGPKFLKNGSNLDLFKSVKTYNITTLLAAAVKNLPLIKYSFDQVIMTKEGCMNHLRTFYPEARNEDWQLYTAGKRVQVIKDTPEHGKGFIQFGTEVVNSQDHTVIALLGESPGASTSVSVALEVLERNFPEYKTEWAPKIKKMIPSYGESLIEDEKLMRKIRKQTSKDLELGYYEN", "values": [{"measurement": "Km", "value": 330, "unit": "µM"}]}]}
